Test results: PMC5986797, “Laminin heparin-binding peptides bind to several growth factors and enhance diabetic wound healing” (Nature Communications, 2018)

T1: recombinant human syndecan-4 (human, UniProt P31431 19-145)
T1 construct: syndecan-4, human, recombinant; probably the extracellular domain; source: bought: SinoBiological
T1 sequence (looked up): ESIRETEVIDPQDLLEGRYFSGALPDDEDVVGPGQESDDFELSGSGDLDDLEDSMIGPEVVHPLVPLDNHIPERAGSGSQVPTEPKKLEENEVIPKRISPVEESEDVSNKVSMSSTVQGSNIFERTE

T2: recombinant human syndecan-1 (human, UniProt P18827 23-254)
T2 construct: syndecan-1, human, recombinant; probably the extracellular domain; source: bought: SinoBiological
T2 sequence (looked up): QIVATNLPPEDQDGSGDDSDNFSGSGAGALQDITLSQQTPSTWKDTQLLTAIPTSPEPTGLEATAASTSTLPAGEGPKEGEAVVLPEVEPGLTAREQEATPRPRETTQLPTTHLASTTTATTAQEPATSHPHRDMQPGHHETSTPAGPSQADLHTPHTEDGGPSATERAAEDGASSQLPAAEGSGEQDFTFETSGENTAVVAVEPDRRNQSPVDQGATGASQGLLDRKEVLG

T3: recombinant laminin LAMA3_(2928–3150) protein (human, UniProt Q16787 2928-3150)
T3 construct: laminin subunit alpha-3, human, LG domain Ser2928-Cys3150 (linker domain and LG4 domain); also called laminin alpha 3 LG domain recombinant protein; source: HEK-293F, transfected, purified from culture medium (HisTrap, size-exclusion chromatography)
T3 sequence (looked up): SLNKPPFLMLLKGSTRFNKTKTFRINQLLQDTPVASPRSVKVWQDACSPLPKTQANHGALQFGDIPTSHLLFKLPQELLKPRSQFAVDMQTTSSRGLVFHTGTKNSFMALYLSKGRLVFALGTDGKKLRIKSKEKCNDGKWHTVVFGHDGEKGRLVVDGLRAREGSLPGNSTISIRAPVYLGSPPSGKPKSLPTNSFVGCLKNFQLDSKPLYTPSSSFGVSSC

B1: laminin peptide LAMA3_(3043–3067) (peptide, UniProt Q16787 3043-3067, looked up)
peptide: RLVFALGTDGKKLRIKSKEKCNDGK
notes: laminin subunit alpha-3, human, residues 3043-3067; also called laminin HBD peptide; source: synthetic peptide (Genscript)
B2: platelet-derived growth factor PDGF-BB (ligand, human, UniProt P01127 82-190, looked up)
chain: SLGSLTIAEPAMIAECKTRTEVFEISRRLIDRTNANFLVWPPCVEVQRCSGCCNNRNVQCRPTQVQLRPVQVRKIEIVRKKPIFKKATVTLEDHLACKCETVAAARPVT
notes: platelet-derived growth factor subunit B, human, bought in its mature form; a homodimer by its name; source: bought: PeproTech; produced in Escherichia coli
B3: laminin peptide LAMA5_(3417–3436) (peptide, UniProt O15230 3417-3436, looked up)
peptide: RQRSRPGRWHKVSVRWEKNR
notes: laminin subunit alpha-5, human, residues 3417-3436; source: synthetic peptide (Genscript)
B4: laminin peptide LAMA5_(3300–3330) (peptide, UniProt O15230 3300-3330, looked up)
peptide: TPGLGPRGLQATARKASRRSRQPARHPACML
notes: laminin subunit alpha-5, human, residues 3300-3330, from the LG3-LG4 linker; source: synthetic peptide (Genscript)
B5: placental growth factor (PlGF)-2 (ligand, human, UniProt P49763-3 19-170, looked up)
chain: LPAVPPQQWALSAGNGSSEVEVVPFQEVWGRSYCRALERLVDVVSEYPSEVEHMFSPSCVSLLRCTGCCGDENLHCVPVETANVTMQLLKIRSGDRPSYVELTFSQHVRCECRPLREKMKPERRRPKGRGKRRREKQRPTDCHLCGDAVPRR
notes: placenta growth factor, form PlGF-2, human, bought in its mature form; source: bought: PeproTech; produced in Escherichia coli

Columns and labels:
Conditions in all cases: both partners purified
[1] = target: T4, FGF-2 (human, UniProt P09038 143-288); assay: ELISA; plates coated with laminin peptide (10 µg/mL by the legend, 1 μg/mL by the methods); 1 μg/mL GF added; bound GF detected with an antibody for each GF; BSA-coated wells as control
T4 construct: fibroblast growth factor 2, human, bought in its mature form; source: bought: PeproTech; produced in Escherichia coli
T4 sequence (P09038 143-288): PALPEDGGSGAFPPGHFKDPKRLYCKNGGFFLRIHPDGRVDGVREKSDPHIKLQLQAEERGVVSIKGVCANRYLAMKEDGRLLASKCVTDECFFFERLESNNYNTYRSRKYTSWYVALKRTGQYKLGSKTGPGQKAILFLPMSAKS

[2] = target: B5; assay: as above
[3] = target: B2; assay: as above
[4] = target: T5, recombinant human syndecan-2 (human, UniProt P34741 19-144); assay: ELISA; plates coated with laminin peptide (10 µg/mL by the legend, 1 μg/mL by the methods); 1 μg/mL His-tagged syndecan added; detected with anti-histidine tag antibody; BSA-coated wells as control
T5 construct: syndecan-2, human, recombinant; probably the extracellular domain; source: bought: SinoBiological
T5 sequence (P34741 19-144): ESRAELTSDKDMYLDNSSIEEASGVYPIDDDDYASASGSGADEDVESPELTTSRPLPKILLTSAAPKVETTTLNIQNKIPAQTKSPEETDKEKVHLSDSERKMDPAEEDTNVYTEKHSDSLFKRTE

[5] = target: T1, recombinant human syndecan-4; assay: as above
[6] = target: T2, recombinant human syndecan-1; assay: as above
[7] = target: T3, recombinant laminin LAMA3_(2928–3150) …; assay: SPR; LAMA3 2928–3150 immobilised by amine coupling on a C1 chip (~1000 RU); GF flown at 20 μL/min in 0.01 M HEPES pH 7.4, 0.15 M NaCl, 0.005% surfactant P20; Langmuir binding kinetics
[8] = target: T6, recombinant human laminin-211 (human, UniProt P24043 23-3122; P07942 22-1786; P11047 34-1609); assay: ELISA; plates coated with 50 nM GF or chemokine in PBS; 10 nM laminin isoform in PBS added; bound laminin detected with anti-LAMC1 or anti-LAMA3 polyclonal antibody; A450 signals greater than 0.1 taken as binding; BSA-coated wells as control
T6 construct: laminin subunit alpha-2, human; chain told by the isoform's name; laminin subunit beta-1, human; laminin subunit gamma-1, human; source: bought: BioLamina (recombinant human, >95% purity); copies: + +

[9] = target: T7, recombinant human laminin-111 (human, UniProt P25391 18-3075; P07942 22-1786; P11047 34-1609); assay: as above
T7 construct: laminin subunit alpha-1, human; chain told by the isoform's name; laminin subunit beta-1, human; laminin subunit gamma-1, human; source: bought: BioLamina (recombinant human, >95% purity); copies: + +

[10] = target: T8, recombinant human laminin-521 (human, UniProt O15230 36-3695; P55268 33-1798; P11047 34-1609); assay: SPR; laminin-521 immobilised by amine coupling on a C1 chip (~2000 RU); GF flown at 20 μL/min in 0.01 M HEPES pH 7.4, 0.15 M NaCl, 0.005% surfactant P20; Langmuir binding kinetics
T8 construct: laminin subunit alpha-5, human; chain told by the isoform's name; laminin subunit beta-2, human; laminin subunit gamma-1, human; also called laminin isoform-521; source: bought: BioLamina (recombinant human, >95% purity); copies: + +

[11] = target: T6, recombinant human laminin-211; assay: ELISA; plates coated with 10 μg/mL laminin isoform; 1 μg/mL GF for 60 min at RT in the absence or presence of 10 μM heparin; bound GF detected with an antibody for each GF
[12] = target: T7, recombinant human laminin-111; assay: as above
[13] = target: T3, recombinant laminin LAMA3_(2928–3150) …; assay: ELISA; plates coated with 1 μg/mL recombinant laminin LG domain; 1 μg/mL GF added; bound GF detected with an antibody for each GF; BSA-coated wells as control

Row | Binder | binding result [1] | binding result [2] | binding result [3] | binding result [4] | binding result [5] | binding result [6] | Kd [7] [nM] | binding result [8] | binding result [9] | Kd [10] [nM] | binding result [11] | binding result [12] | binding result [13]
1 | B1 | binds | binds | binds | binds | binds | binds | – | – | – | – | – | – | –
2 | B2 | – | – | – | – | – | – | 10.2 | binds | binds | 24.2 | – | – | –
3 | B3 | binds | binds | binds | binds | binds | binds | – | – | – | – | – | – | –
4 | B4 | – | binds | – | binds | binds | binds | – | – | – | – | – | – | –
5 | B5 | – | – | – | – | – | – | – | – | – | 12.9 | binds | binds | binds
